We go through six molecules from patent publication US20250262210A1 (TRUSTEES OF COLUMBIA UNIVERSITY IN THE CITY OF NEW YORK, published 2025).

For one assay, the target named is T1, LZTR1 R810W-FLAG (human, UniProt Q8N653 1-840).
T1 construct: Stably expressed in U87 cells by lentivirus; also called LZTR1-FLAG-R810W; LZTR1 RW; not shown: FLAG tag
T1 sequence (looked up): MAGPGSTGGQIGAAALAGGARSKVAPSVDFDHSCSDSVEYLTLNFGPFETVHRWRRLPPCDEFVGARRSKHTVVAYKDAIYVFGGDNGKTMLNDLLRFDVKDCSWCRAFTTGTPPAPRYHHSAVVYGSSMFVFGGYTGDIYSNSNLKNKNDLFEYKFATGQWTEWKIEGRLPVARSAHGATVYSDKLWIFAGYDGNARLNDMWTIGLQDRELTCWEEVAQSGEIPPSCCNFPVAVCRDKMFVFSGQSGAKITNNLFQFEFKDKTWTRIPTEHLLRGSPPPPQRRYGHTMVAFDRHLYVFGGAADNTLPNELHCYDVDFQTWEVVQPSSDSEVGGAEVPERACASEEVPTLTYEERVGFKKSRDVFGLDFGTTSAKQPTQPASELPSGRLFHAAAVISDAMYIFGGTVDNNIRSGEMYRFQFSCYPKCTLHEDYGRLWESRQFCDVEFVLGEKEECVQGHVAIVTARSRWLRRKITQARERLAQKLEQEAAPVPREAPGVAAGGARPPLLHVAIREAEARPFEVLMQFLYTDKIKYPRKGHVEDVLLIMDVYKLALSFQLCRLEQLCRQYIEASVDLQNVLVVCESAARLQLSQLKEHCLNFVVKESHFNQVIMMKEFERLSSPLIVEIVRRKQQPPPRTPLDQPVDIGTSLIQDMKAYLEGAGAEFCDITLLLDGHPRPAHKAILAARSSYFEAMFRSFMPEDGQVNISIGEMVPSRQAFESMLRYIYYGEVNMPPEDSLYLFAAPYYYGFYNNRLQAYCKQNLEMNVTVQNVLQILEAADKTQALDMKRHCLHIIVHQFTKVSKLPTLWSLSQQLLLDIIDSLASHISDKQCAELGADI
Put plainly: IP/MS, LZTR1 R810W-FLAG, U87. Put shortly:
(§1)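 Extracted peptides in 3% acetonitrile/0.1% formic acid ran on a 50 cm C18 column into an Orbitrap Fusion, with MaxQuant identification and spectral counting.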

The target in a further assay is T2, LZTR1-FLAG (human, UniProt Q8N653 1-840).
T2 construct: Expressed in HEK 293T, HeLa or U87 cells; used as cell lysate; also called LZTR1 wild type-FLAG; LZTR1 WT; not shown: FLAG tag at the C-terminus
T2 sequence (looked up): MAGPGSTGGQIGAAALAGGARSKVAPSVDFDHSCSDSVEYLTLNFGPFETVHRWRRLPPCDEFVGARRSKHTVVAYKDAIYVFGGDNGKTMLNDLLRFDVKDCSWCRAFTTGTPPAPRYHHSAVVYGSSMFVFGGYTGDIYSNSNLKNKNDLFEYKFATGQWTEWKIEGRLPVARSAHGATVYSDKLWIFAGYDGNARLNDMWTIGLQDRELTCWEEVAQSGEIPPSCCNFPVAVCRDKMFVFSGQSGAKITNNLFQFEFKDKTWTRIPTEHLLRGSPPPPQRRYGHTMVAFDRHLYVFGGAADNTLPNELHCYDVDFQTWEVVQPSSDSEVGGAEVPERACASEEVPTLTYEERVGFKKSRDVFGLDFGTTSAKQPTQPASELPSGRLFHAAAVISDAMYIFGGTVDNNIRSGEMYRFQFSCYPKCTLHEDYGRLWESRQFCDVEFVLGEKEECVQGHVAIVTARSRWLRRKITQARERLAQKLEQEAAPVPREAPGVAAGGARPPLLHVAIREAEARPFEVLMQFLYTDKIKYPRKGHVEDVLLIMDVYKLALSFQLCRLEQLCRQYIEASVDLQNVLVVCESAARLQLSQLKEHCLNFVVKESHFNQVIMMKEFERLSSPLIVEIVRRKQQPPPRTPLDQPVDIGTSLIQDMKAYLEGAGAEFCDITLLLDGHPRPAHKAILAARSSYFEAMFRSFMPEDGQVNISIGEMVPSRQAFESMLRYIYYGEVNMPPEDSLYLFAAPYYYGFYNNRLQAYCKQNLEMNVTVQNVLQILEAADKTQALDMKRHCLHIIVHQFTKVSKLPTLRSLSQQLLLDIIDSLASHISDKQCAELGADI
Put plainly: IP/MS, LZTR1 wild type-FLAG, U87. Put shortly:
as §1

B1: FADS1 (other, human, UniProt O60427 1-444, looked up)
chain: MAPDPVAAETAAQGPTPRYFTWDEVAQRSGCEERWLVIDRKVYNISEFTRRHPGGSRVISHYAGQDATDPFVAFHINKGLVKKYMNSLLIGELSPEQPSFEPTKNKELTDEFRELRATVERMGLMKANHVFFLLYLLHILLLDGAAWLTLWVFGTSFLPFLLCAVLLSAVQAQAGWLQHDFGHLSVFSTSKWNHLLHHFVIGHLKGAPASWWNHMHFQHHAKPNCFRKDPDINMHPFFFALGKILSVELGKQKKKYMPYNHQHKYFFLIGPPALLPLYFQWYIFYFVIQRKKWVDLAWMITFYVRFFLTYVPLLGLKAFLGLFFIVRFLESNWFVWVTQMNHIPMHIDHDRNMDWVSTQLQATCNVHKSAFNDWFSGHLNFQIEHHLFPTMPRHNYHKVAPLVQSLCAKHGIEYQSKPLLSAFADIIHSLKESGQLWLDAYLHQ
As for B1, the binding result in the assay with LZTR1 R810W-FLAG and with LZTR1-FLAG was “binds” in each case.

B2: GUCY1B1 (other, human, UniProt Q02153 1-619, looked up)
chain: MYGFVNHALELLVIRNYGPEVWEDIKKEAQLDEEGQFLVRIIYDDSKTYDLVAAASKVLNLNAGEILQMFGKMFFVFCQESGYDTILRVLGSNVREFLQNLDALHDHLATIYPGMRAPSFRCTDAEKGKGLILHYYSEREGLQDIVIGIIKTVAQQIHGTEIDMKVIQQRNEECDHTQFLIEEKESKEEDFYEDLDRFEENGTQESRISPYTFCKAFPFHIIFDRDLVVTQCGNAIYRVLPQLQPGNCSLLSVFSLVRPHIDISFHGILSHINTVFVLRSKEGLLDVEKLECEDELTGTEISCLRLKGQMIYLPEADSILFLCSPSVMNLDDLTRRGLYLSDIPLHDATRDLVLLGEQFREEYKLTQELEILTDRLQLTLRALEDEKKKTDTLLYSVLPPSVANELRHKRPVPAKRYDNVTILFSGIVGFNAFCSKHASGEGAMKIVNLLNDLYTRFDTLTDSRKNPFVYKVETVGDKYMTVSGLPEPCIHHARSICHLALDMMEIAGQVQVDGESVQITIGIHTGEVVTGVIGQRMPRYCLFGNTVNLTSRTETTGEKGKINVSEYTYRCLMSPENSDPQFHLEHRGPVSMKGKKEPMQVWFLSRKNTGTEETKQDDD
With B2, the binding result with LZTR1 R810W-FLAG and with LZTR1-FLAG was “binds” each time.

B3: GBE1 (other, human, UniProt Q04446 2-702, looked up)
chain: AAPMTPAARPEDYEAALNAALADVPELARLLEIDPYLKPYAVDFQRRYKQFSQILKNIGENEGGIDKFSRGYESFGVHRCADGGLYCKEWAPGAEGVFLTGDFNGWNPFSYPYKKLDYGKWELYIPPKQNKSVLVPHGSKLKVVITSKSGEILYRISPWAKYVVREGDNVNYDWIHWDPEHSYEFKHSRPKKPRSLRIYESHVGISSHEGKVASYKHFTCNVLPRIKGLGYNCIQLMAIMEHAYYASFGYQITSFFAASSRYGTPEELQELVDTAHSMGIIVLLDVVHSHASKNSADGLNMFDGTDSCYFHSGPRGTHDLWDSRLFAYSSWEILRFLLSNIRWWLEEYRFDGFRFDGVTSMLYHHHGVGQGFSGDYSEYFGLQVDEDALTYLMLANHLVHTLCPDSITIAEDVSGMPALCSPISQGGGGFDYRLAMAIPDKWIQLLKEFKDEDWNMGDIVYTLTNRRYLEKCIAYAESHDQALVGDKSLAFWLMDAEMYTNMSVLTPFTPVIDRGIQLHKMIRLITHGLGGEGYLNFMGNEFGHPEWLDFPRKGNNESYHYARRQFHLTDDDLLRYKFLNNFDRDMNRLEERYGWLAAPQAYVSEKHEGNKIIAFERAGLLFIFNFHPSKSYTDYRVGTALPGKFKIVLDSDAAEYGGHQRLDHSTDFFSEAFEHNGRPYSLLVYIPSRVALILQNVDLPN
B3: the binding result with LZTR1 R810W-FLAG and in the assay with LZTR1-FLAG was “binds” each time.

B4: GMPPA (other, human, UniProt Q96IJ6 1-420, looked up)
chain: MLKAVILIGGPQKGTRFRPLSFEVPKPLFPVAGVPMIQHHIEACAQVPGMQEILLIGFYQPDEPLTQFLEAAQQEFNLPVRYLQEFAPLGTGGGLYHFRDQILAGSPEAFFVLNADVCSDFPLSAMLEAHRRQRHPFLLLGTTANRTQSLNYGCIVENPQTHEVLHYVEKPSTFISDIINCGIYLFSPEALKPLRDVFQRNQQDGQLEDSPGLWPGAGTIRLEQDVFSALAGQGQIYVHLTDGIWSQIKSAGSALYASRLYLSRYQDTHPERLAKHTPGGPWIRGNVYIHPTAKVAPSAVLGPNVSIGKGVTVGEGVRLRESIVLHGATLQEHTCVLHSIVGWGSTVGRWARVEGTPSDPNPNDPRARMDSESLFKDGKLLPAITILGCRVRIPAEVLILNSIVLPHKELSRSFTNQIIL
Turning to B4, the binding result in the assay with LZTR1 R810W-FLAG and with LZTR1-FLAG was “binds” in each case.

B5: GLE1 (other, human, UniProt Q53GS7 1-698, looked up)
chain: MPSEGRCWETLKALRSSDKGRLCYYRDWLLRREDVLEECMSLPKLSSYSGWVVEHVLPHMQENQPLSETSPSSTSASALDQPSFVPKSPDASSAFSPASPATPNGTKGKDESQHTESMVLQSSRGIKVEGCVRMYELVHRMKGTEGLRLWQEEQERKVQALSEMASEQLKRFDEWKELKQHKEFQDLREVMEKSSREALGHQEKLKAEHRHRAKILNLKLREAEQQRVKQAEQERLRKEEGQIRLRALYALQEEMLQLSQQLDASEQHKALLKVDLAAFQTRGNQLCSLISGIIRASSESSYPTAESQAEAERALREMRDLLMNLGQEITRACEDKRRQDEEEAQVKLQEAQMQQGPEAHKEPPAPSQGPGGKQNEDLQVKVQDITMQWYQQLQDASMQCVLTFEGLTNSKDSQAKKIKMDLQKAATIPVSQISTIAGSKLKEIFDKIHSLLSGKPVQSGGRSVSVTLNPQGLDFVQYKLAEKFVKQGEEEVASHHEAAFPIAVVASGIWELHPRVGDLILAHLHKKCPYSVPFYPTFKEGMALEDYQRMLGYQVKDSKVEQQDNFLKRMSGMIRLYAAIIQLRWPYGNRQEIHPHGLNHGWRWLAQILNMEPLSDVTATLLFDFLEVCGNALMKQYQVQFWKMLILIKEDYFPRIEAITSSGQMGSFIRLKQFLEKCLQHKDIPVPKGFLTSSFWRS
On to B5, for which the binding result in the assay with LZTR1 R810W-FLAG and with LZTR1-FLAG was “binds” in each case.

B6: GPD2 (other, human, UniProt P43304 43-727, looked up)
chain: ADCISEPVNREPPSREAQLLTLQNTSEFDILVIGGGATGSGCALDAVTRGLKTALVERDDFSSGTSSRSTKLIHGGVRYLQKAIMKLDIEQYRMVKEALHERANLLEIAPHLSAPLPIMLPVYKWWQLPYYWVGIKLYDLVAGSNCLKSSYVLSKSRALEHFPMLQKDKLVGAIVYYDGQHNDARMNLAIALTAARYGAATANYMEVVSLLKKTDPQTGKVRVSGARCKDVLTGQEFDVRAKCVINATGPFTDSVRKMDDKDAAAICQPSAGVHIVMPGYYSPESMGLLDPATSDGRVIFFLPWQKMTIAGTTDTPTDVTHHPIPSEEDINFILNEVRNYLSCDVEVRRGDVLAAWSGIRPLVTDPKSADTQSISRNHVVDISESGLITIAGGKWTTYRSMAEDTINAAVKTHNLKAGPSRTVGLFLQGGKDWSPTLYIRLVQDYGLESEVAQHLAATYGDKAFEVAKMASVTGKRWPIVGVRLVSEFPYIEAEVKYGIKEYACTAVDMISRRTRLAFLNVQAAEEALPRIVELMGRELNWDDYKKQEQLETARKFLYYEMGYKSRSEQLTDRSEISLLPSDIDRYKKRFHKFDADQKGFITIVDVQRVLESINVQMDENTLHEILNEVDLNKNGQVELNEFLQLMSAIQKGRVSGSRLAILMKTAEENLDRRVPIPVDRSCGGL
B6: the binding result with LZTR1 R810W-FLAG and with LZTR1-FLAG was “binds” throughout.
